From publication PMC2645378 (Virology Journal, 2008)
Where “and” joins values, the source holds several entries; their conditions need not be identical. Equal values may be shown once.

Molecular target: the molecule itself

B1: FLAG-tagged soluble Lassa virus glycoprotein 1 (sGP1-FLAG) (natural protein)
chain: TSLYKGVYELQTLELNMETLNMTMPLSCTKNNSHHYIMVGNETGLELTLTNTSIINHKFCNLSDAHKKNLYDHALMSIISTFHLSIPNFNQYEAMSCDFNGGKISVQYNLSHSYAGDAANHCGTVANGVLQTFMRMAWGGSYIALDSGRGNWDCIMTSYQYLIIQNTTWEDHCQFSRPSPIGYLGLLSQRTRDIYISRRLL
stoichiometry N: 2 and 3
